Results: paper PMC6402988 (Nature structural & molecular biology, 2019)
Changes are numbered by the printed parent chain.

Key:
[1] = target: T1, cleaved Ebola virus glycoprotein (EBOV GPCL) (Zaire ebolavirus, Mayinga-76); assay: cell-based or functional assay
T1 chain 1: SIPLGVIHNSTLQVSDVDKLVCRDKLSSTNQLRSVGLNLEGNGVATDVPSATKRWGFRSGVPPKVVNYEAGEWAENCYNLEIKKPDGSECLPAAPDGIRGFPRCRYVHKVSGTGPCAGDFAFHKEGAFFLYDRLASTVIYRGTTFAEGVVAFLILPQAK
T1 chain 2: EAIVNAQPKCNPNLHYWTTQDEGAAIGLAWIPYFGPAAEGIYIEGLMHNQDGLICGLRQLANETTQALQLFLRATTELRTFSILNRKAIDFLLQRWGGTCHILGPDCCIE

[2] = target: T1, cleaved Ebola virus glycoprotein (EBOV …); assay: BLI
[3] = target: SUDV GP ectodomain (Sudan ebolavirus; strain not named for …, UniProt Q66814); assay: cell-based or functional assay

B1: ADI-15946 IgG (antibody, V domains shown)
VH: EVQLVESGGGLVKPGGSLRLSCAASGFTFSNAWMSWVRQAPGKGLEWVGRIKSKTDGGTIDYAAPVKGRFTISRDDSKNTVYLQMTSLKTEDTAVYYCTTYTEDMRYFDWLLRGGETFDYWGQGTLVTVSS
VL: DIRLTQSPSSLSASVGDRVTITCRASHYISTYLNWYQQKPGKAPKLLIYAASNLQSGVPSRFSGSGFGTDFSLTISSLQPEDFATYHCQQSYSTPGRYTFGQGTKVEIK
- neutralization potency against rVSV-EBOV GPCL compared to rVSV-EBOV GPFL [1]: 100 fold
- fold improvement in binding (KDapp) against full-length GP [2]: 10000 fold
- fold increased kon against EBOV GPFL [2]: 10 fold
- fold slower koff against EBOV GPFL [2]: > 1000 fold

B2: 46M3 (antibody, V domains shown)
VH: B1 VH with R106A
VL: B1 VL with S65Y, F67Y
- fold improvement in neutralization of authentic SUDV against parental ADI-15946 [3]: 33 fold

B3: ADI-15946 LC^WT:HC^IGL (antibody, V domains shown)
VH: not shown
VL: B1 VL
- binding result [2]: binds

B4: 46M2 (antibody, V domains shown)
VH: B1 VH with R106A
VL: B1 VL with S65Y
- fold improvement in neutralization of authentic SUDV against parental ADI-15946 [3]: 33 fold
